Data reported in patent US20160356794A1 (Merck Sharp & Dohme, published 2016).
No end group written: not given here.

What was measured:
EPPKSGDRSGYSSPG = target: T1, EPPKSGDRSGYSSPG (human); assay: RepliTope peptide microarray, immobilized 15-mer, fluorescent secondary antibody
T1 construct: Synthetic peptide covalently immobilized on glass through a hydrophilic linker (RepliTope microarray)
T1 peptide: EPPKSGDRSGYSSPG
Excerpt: (§1) Epitope mapping of clones 10H8 and 19G10 was completed using JPT Peptide Technologies' RepliTope™ peptide microarrays. This technology consists in using purified synthetic peptides chemoselectively and covalently immobilized to the glass surface. An optimized hydrophilic linker moiety is inserted between the glass surface and the antigen derived peptide sequence to avoid false negatives caused by sterical hindrance. The peptides used spanned Tau mid region protein sequence of 166 amino acids between amino acid 104 and amino acid 269 (Tau 166). Peptides of 15 amino acids in length that extended downstream either 1 or 2 amino acids at a time were used in this experiment.
(§2) The assay was performed using an automated TECAN HS4X00 microarray processing station. Microarrays were washed, incubated with blocking buffer for 60 min at 30° C., and subsequently with clones […] and 19G10 diluted in blocking buffer for 120 min at 30° C. Microarrays were washed and incubated with secondary antibody diluted in blocking buffer for 45 min at 30° C. and then dried. The quantification was performed using high resolution fluorescence scanner. The resulting images were analyzed and quantified using spot-recognition software GenePix (Molecular Devices). For each spot, the mean signal intensity was extracted and expressed as arbitraty florescence units.

GEPPKSGDRSGYSSP [1] = target: T2, GEPPKSGDRSGYSSP (human); assay: as above
T2 construct: Synthetic peptide covalently immobilized on glass through a hydrophilic linker (RepliTope microarray)
T2 peptide: GEPPKSGDRSGYSSP
Excerpt: as §1, §2

PPKSGDRSGYSSPGS [2] = target: T3, PPKSGDRSGYSSPGS (human); assay: as above
T3 construct: Synthetic peptide covalently immobilized on glass through a hydrophilic linker (RepliTope microarray)
T3 peptide: PPKSGDRSGYSSPGS
Excerpt: as §1, §2

KTPPSSGEPPKSGDR = target: T4, KTPPSSGEPPKSGDR (human); assay: as above
T4 construct: Synthetic peptide covalently immobilized on glass through a hydrophilic linker (RepliTope microarray)
T4 peptide: KTPPSSGEPPKSGDR
Excerpt: as §1, §2

GDRSGYSSPGSPGTP = target: T5, GDRSGYSSPGSPGTP (human); assay: as above
T5 construct: Synthetic peptide covalently immobilized on glass through a hydrophilic linker (RepliTope microarray)
T5 peptide: GDRSGYSSPGSPGTP
Excerpt: as §1, §2

KSGDRSGYSSPGSPG [3] = target: T6, KSGDRSGYSSPGSPG (human); assay: as above
T6 construct: Synthetic peptide covalently immobilized on glass through a hydrophilic linker (RepliTope microarray)
T6 peptide: KSGDRSGYSSPGSPG
Excerpt: as §1, §2

KSGDRSGYSSPGSPG [4] = target: T7, KSGDRSGYSSPGSPG (human); assay: as above
T7 construct: Synthetic peptide covalently immobilized on glass through a hydrophilic linker (RepliTope microarray)
T7 peptide: KSGDRSGYSSPGSPG
Excerpt: as §1, §2

PKSGDRSGYSSPGSP = target: T8, PKSGDRSGYSSPGSP (human); assay: as above
T8 construct: Synthetic peptide covalently immobilized on glass through a hydrophilic linker (RepliTope microarray)
T8 peptide: PKSGDRSGYSSPGSP
Excerpt: as §1, §2

APKTPPSSGEPPKSG = target: T9, APKTPPSSGEPPKSG (human); assay: as above
T9 construct: Synthetic peptide covalently immobilized on glass through a hydrophilic linker (RepliTope microarray)
T9 peptide: APKTPPSSGEPPKSG
Excerpt: as §1, §2

SGEPPKSGDRSGYSS = target: T10, SGEPPKSGDRSGYSS (human, also: covalently immobilized on glass through a hydrophilic linker); assay: as above
T10 construct: Synthetic peptide covalently immobilized on glass through a hydrophilic linker (RepliTope microarray)
T10 peptide: SGEPPKSGDRSGYSS
Excerpt: as §1, §2

GEPPKSGDRSGYSSP [5] = target: T11, GEPPKSGDRSGYSSP (human); assay: as above
T11 construct: Synthetic peptide covalently immobilized on glass through a hydrophilic linker (RepliTope microarray)
T11 peptide: GEPPKSGDRSGYSSP
Excerpt: as §1, §2

SGDRSGYSSPGSPGT = target: T12, SGDRSGYSSPGSPGT (human, also: covalently immobilized on glass through a hydrophilic linker); assay: as above
T12 construct: Synthetic peptide covalently immobilized on glass through a hydrophilic linker (RepliTope microarray)
T12 peptide: SGDRSGYSSPGSPGT
Excerpt: as §1, §2

PPAPKTPPSSGEPPK = target: T13, PPAPKTPPSSGEPPK (human); assay: as above
T13 construct: Synthetic peptide covalently immobilized on glass through a hydrophilic linker (RepliTope microarray)
T13 peptide: PPAPKTPPSSGEPPK
Excerpt: as §1, §2

SSGEPPKSGDRSGYS [6] = target: T14, SSGEPPKSGDRSGYS (human, also: covalently immobilized on glass through a hydrophilic linker); assay: as above
T14 construct: Synthetic peptide covalently immobilized on glass through a hydrophilic linker (RepliTope microarray)
T14 peptide: SSGEPPKSGDRSGYS
Excerpt: as §1, §2

PPKSGDRSGYSSPGS [7] = target: T15, PPKSGDRSGYSSPGS (human); assay: as above
T15 construct: Synthetic peptide covalently immobilized on glass through a hydrophilic linker (RepliTope microarray)
T15 peptide: PPKSGDRSGYSSPGS
Excerpt: as §1, §2

PPSSGEPPKSGDRSG = target: T16, PPSSGEPPKSGDRSG (human); assay: as above
T16 construct: Synthetic peptide covalently immobilized on glass through a hydrophilic linker (RepliTope microarray)
T16 peptide: PPSSGEPPKSGDRSG
Excerpt: as §1, §2

SSGEPPKSGDRSGYS [8] = target: T17, SSGEPPKSGDRSGYS (human, also: covalently immobilized on glass through a hydrophilic linker); assay: as above
T17 construct: Synthetic peptide covalently immobilized on glass through a hydrophilic linker (RepliTope microarray)
T17 peptide: SSGEPPKSGDRSGYS
Excerpt: as §1, §2

[9] = target: h-Tau 441 (human Tau isoform 2-441, Accession No. NP 005901.2) (human, UniProt P10636 2-758); assay: SPR, BIAcore CM3 sensor chip, immobilized h-Tau 441
h-Tau 441 (human Tau isoform 2-441, Accession No. NP 005901.2), sequence (P10636 other isoform, or with tags, fused parts or gaps limits assumed): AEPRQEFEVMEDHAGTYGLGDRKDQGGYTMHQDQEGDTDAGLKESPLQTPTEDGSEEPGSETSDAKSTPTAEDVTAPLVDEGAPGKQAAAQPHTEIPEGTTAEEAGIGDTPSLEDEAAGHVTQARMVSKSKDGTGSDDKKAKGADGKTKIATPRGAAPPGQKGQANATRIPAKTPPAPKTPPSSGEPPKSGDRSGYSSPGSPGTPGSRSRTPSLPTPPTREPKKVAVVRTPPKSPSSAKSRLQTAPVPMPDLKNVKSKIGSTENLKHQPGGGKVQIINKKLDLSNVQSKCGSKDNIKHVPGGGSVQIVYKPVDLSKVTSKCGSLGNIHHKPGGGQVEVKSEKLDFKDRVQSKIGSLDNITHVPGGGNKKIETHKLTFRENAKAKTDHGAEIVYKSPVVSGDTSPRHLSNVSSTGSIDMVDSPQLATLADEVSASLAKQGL
Experimental: The binding affinity (Kd) of the 10H8 and 19G10 mAbs was determined by BIAcore CM3 sensor chip (Biacore, Piscataway, N.J.) using immobilized h-Tau 441 as the capture protein.

- Fluorescent Intensity (EPPKSGDRSGYSSPG): 63100 arbitrary fluorescence units
- Fluorescent Intensity (GEPPKSGDRSGYSSP [1]): 58000 arbitrary fluorescence units
- Fluorescent Intensity (PPKSGDRSGYSSPGS [2]): 53400 arbitrary fluorescence units
- Fluorescent Intensity (KTPPSSGEPPKSGDR): 55800 arbitrary fluorescence units
- Fluorescent Intensity (GDRSGYSSPGSPGTP): 588 arbitrary fluorescence units
- Fluorescent Intensity (KSGDRSGYSSPGSPG [3]): 1550 arbitrary fluorescence units
- Fluorescent Intensity (KSGDRSGYSSPGSPG [4]): 1810 arbitrary fluorescence units
- Fluorescent Intensity (PKSGDRSGYSSPGSP): 49600 arbitrary fluorescence units
- Fluorescent Intensity (APKTPPSSGEPPKSG): 761 arbitrary fluorescence units
- Fluorescent Intensity (SGEPPKSGDRSGYSS): 59700 arbitrary fluorescence units
- Fluorescent Intensity (GEPPKSGDRSGYSSP [5]): 58900 arbitrary fluorescence units
- Fluorescent Intensity (SGDRSGYSSPGSPGT): 619 arbitrary fluorescence units
- Fluorescent Intensity (PPAPKTPPSSGEPPK): 892 arbitrary fluorescence units
- Fluorescent Intensity (SSGEPPKSGDRSGYS [6]): 55400 arbitrary fluorescence units
- Fluorescent Intensity (PPKSGDRSGYSSPGS [7]): 58700 arbitrary fluorescence units
- Fluorescent Intensity (PPSSGEPPKSGDRSG): 62000 arbitrary fluorescence units
- Fluorescent Intensity (SSGEPPKSGDRSGYS [8]): 62700 arbitrary fluorescence units
- Kd [9]: 6.3 nM
- koff [9]: 0.000176 s⁻¹
- kon [9]: 25900 M⁻¹ s⁻¹
B1: monoclonal antibody 19G10 (antibody, mouse IgG2b, V domains shown)
VH: QVTLKESGPGILQPSQTLSLTCSFSGFSLSTSGMGVGWIRQPSGKGLEWLAHIWWDDDKYYNAVLKSRLTISKDTSKNQVFLKIASVDTADTATYYCARIGIDGPYAMDYWGQGTSVTVSS
VL: DIVMSQSPSSLAVSIGEKVTMSCKSSQSLLYSNNQKNYLAWYQRKPGQSPKLLIYWASTRESGVPDRFTGSGSGTDFTLTITSVKAEDLAVYYCQQYYSYPLWTFGGGTKLEIK
notes: also called mAb 19G10; 19G10 mAb
